A short description of the data set: label from the status in PepcDB records.
“MSDVIQLAYFAVAVVFILGLKAMSSPVSARKGIVWAGYAMVAATLITLLKPGMENYGLMITAIVLGGAVAWWSGKVVKMTDMPQMVAIYNGMGSGAAAAIAALEFARGSMHGGFAATLAVLGALIGSVAFSGSCIAFAKLQGIMTKAWRLPAQNVVNVALAGIALVLGGAIIFGSTPASEMVIAFFVVALALGAILTSPIGGADMPVVISLLNAFTGLAVGFEGYVLGNPALIVAGIVVGASGTLLTQLMAKAMNRPIKNIIFTPITGAAAGGGEAIGGSMKELSALDGASVMRYASKVIIVPGYGMAVAGAQHKVWEMAQLLEEGGVEVVFAIHPVAGRMPGHMNVLLAEAGVPYDKIFDLEEINADFPQADVALVIGANDVVNPVARTDKSSPIYGMPILNVDMAQNVIVVKRGQGAGYSGIENALFFKDNCRMLYGSAQQIIGEVITHVKALEV”: the protein production entry is on record as “failed”.

Consider “MSDVRTNEAEKRHAHPDFDAARFPADARVRVLARRFPPYHRDSPCLAILDRFLHDPTLSAAAVVDDAMRPVGLIDRYSLVEQFLHPYSRDLYHKHSIAAFMDPEPVIVEADSSIDDLSRIIIDAGMRHMVSGFIVTEDGLYLGIGSGHDLFEEVANRKQNHLYHLAHYDPLTSLPNRLLLNDRLKRACLRGQRGGYRIALLFIDLDRFKLVNDTLGHAAGDQLLQGVAGRFAACVRKVDTVARLGGDEFTVLLEPVQGPDEALAVAAKLAQSLERPFLIQNHEITTSASIGVVLFPEHDATVEGLMRKADAAMYCAKREGRNRFALFTEEMNSTVVERVTLESYLNAALEKGEFCCHFQPQMATADDRIVGVEALLRWTNPVLGRVPPLKFIPVAEDTGLILPLGLWALETACAQQVRWLSQGLPPLRMAVNISPLQFRNREFCDQVRAIVQRTGIRAEHLELELTESAVMADAESSVGILRELRDSGIRLAIDDFGTGYSSLSYLRKFPLDRLKIDRSFVSGIDRIPANELIVKAIVALGGSLGLDVIAEGVETPEELECIERCGCSEYQGFRLSEPLTAEDFAHWFEDSGYV”, for which the protein production result was “failed”. The result for “MSDYLDMLASFGVSSAHPGGMSLSKAVLAKAGIDPEQPILDAGCGTGQTAAYLGQLLFPVTALDADPVMIDKARQRFKKEQLSIPAVRSPLEEMPFQSESFACVLTESVLSFTNIRSALQEIRRILKPGGMLVAIEVCLKEGNALTDEAKKEITEFYGFTALYDEDEWVNVLREEGFSKIDIIPVVLEDAGDPDDAVEMDLSPAISDKDYETMEKHLHYLEKYRDSLDHIIFISHL” reads “failed”.

In the case of “MSEAKELIKKMCDLQNSNEEIQKEMAGWSGVVQYKLDGYYFYVEYKSDGTCEFKEGVHSSPTFTVVAPPDFWLAVLKGQEDPVSGFMMGKYRIEGNIMEAQRLAGVIKKFQGKFEL”, the protein production result is “not failed”. The same measure for “MSEALELLGQDIVARAPGVLGHSVAFGELTIVARAASVIDTLTFLRDDAACRFHQLIDLTGVDYPERAARFDVVYHLLSLVKNHRIRLKVSTDEDTPVPSVTPVFPVADWFEREAFDMYGIFFDGHPDLRRILTDYGFHGHPLRKDFPMTGYVEVRYDDELKRVVYEPVKITEFRAFDFLSPWEGAKYALPGDEKAQ”: “failed”; for “MSEDEAQFHGNYDDYVTYLKRRIRQLELQVRMLEADKERLERELSRLRSEMSRLRQPPAFAGSVIEVLDDDRAIVQNYNGPRFVVRIAPWIDKSKLRPGTRVALDQRTMAIIEILPASKDPAVLGFEVVERPN”: “failed”; for “MSEDRSSNGQKSWLGKLTQAFVHEPKNRQELLELLREAHQNKLLDSEALAIVEGAIQVADLQVRDIMVPRSQMISIKATQTPREFLPAVIDAAHSRYPVIGESHDDVLGVLLAKDLLPLILKADGDSDDVKKLLRPATFVPESKRLNVLLREFRANHNHMAIVIDEYGGVAGLVTIEDVLEQIVGDIEDEHDVEEDSYIKPLPSGDFLVKALTPVENFNEFFDSAFSDDEFDTVGGLVMNAFGHLPKRNEITEIGAYRFRILSADSRRIHLLRVTPISRP”: “failed”.

As to “MSEEKNTAIDLKNLKAGGFIKERGKDLFTVRLRVPGGRLPVGRLKKIAEVAEKYGQGMVHLSVRQSVELININFRDFDAVVAELGEGTQKVASCGARVRVPTACGGCEYNPNGLVDTQKSALEVDEKLFGIPTGHHKFKVGFAGCPFDCPKSATNDVGFQGAVWPVLSADHCIGCGLCAKSCTEDAIAMGDNGKPLFIPANCLYCGDCLKVCPTEAWRAGKKGYTVRIGGKWGRRPLVGTLFAEFLPEDQVVDFIAAVLGWYQEKAEGQGRIRLGDVIRAQGPEALLARLRERFPAFVVNATIAPQAIATQVGKEKQAHDNRLEHHHHHH”, the protein production entry was “not failed”.

“MSEGNRSRSRLLPSLLGLLILLSGLALLAGGIKLASLGGSLYYLLAGIGLALSGLLLLLGKRAALGLYALVLFASTVWALWEVGLDWWQLVPRLALWFVFGLLLWLPWFRRPLLADGPAPLGTAALGVAVVLAGAAAVGSQFTNPGQIVGRIDRDSGMTSTAPAMPDGDWQAYGRTEFGDRYSPLKQITPANVGQLEEAWRIRTGDLPTADDPLELTNENTPLKVNGMLYACTAHSKVLALDPDTGAEIWRFDPQIQSPVGFKGFAHMTCRGVSYYDEEQYARSDVGAPPAALSEAGKAVAASCPRRLFLPTADARLIAINADNGKVCEDFGVKGAVDLTAGIGPFTPGGYYSTSPAAVTRNLVIIGGHVTDNESTNEPSGVIRAFDVHDGKLVWNWDSGNPDETEPLAPGKFYTRNSPNMWSLASVDEKLGQVYLPLGNQMPDQWGGNRTPGAEKFSAGLVALDLNTGKLRWNYQFTHHDLWDMDVGSQPTLLDLKTADGVKPALIAPTKQGSLYVLDRRDGTPIVPIREVPAPQGAVEGDHTAPTQARSDLNLLRPPLTERDMWGSSPFDQMLCRIQFRSLRYEGQYTPPSEQGSLIYPGNVGVFNWGGVSVDPVRQILFTSPNYMAFVSQMVPRDKVPSGSKREGETSGVQPNTGAPYAVIMHPFMSPIGLPCQAPSWGDVAGIDLTTAKVVWQHKNGTSRDNTPVPIGLTVGVPSMGGSITTAGGVAFLSGTLDQYLRAYDVKDGKQLWQARLPAGGQATPMSYTGKDGRQYVLIVAGGHGSFGTRMGDYIIAYALPRQ”: the protein production entry is “failed”. The result for “MSEGTLFVFTCDRPNGSSVIMCPGGGFLKTNLENEGIDFAEWFTKLGITYIVFKYRMPHGNPDVPEQDTRLALKVVREKFPEFCDKLGVMGASIGGYLATFSATLLPDDEKPDFQILMYPVVSVDDRLTHFPCRERMFGHSYSPDKMEQYSPIEHITSGTPAAFIVAAADDAVVSPLNGIMYAARLQKADIPISLHIYPAGGHGFGYNDSFVYKQEWLQELGEWLAKLLEHHHHHH” reads “failed”. The same measure for “MSEKPLISVLMPNYNSEKYLNEAIESILNQTYENFEFIILDDCSTDNSWKIIQEYAKKDKRINIFRNEKNLGRPKTYNRLLNMISNESFFFFFMGSDDVVKENMINIKLNYFNNFEEIDGIGNSIEYVDENLNFIKKREYPLTDRDIRKNFLIFNPISQGGMCLKSNLKNETFNEKYKVCLDYEIWTRLIDKGYTFENLKESLYLYRQQREQAKQKNLKMTLVNTVKIKSKYLFRPQYFSINAFLRFNLEILLLMLPKKLILWVFYKSL”: “failed”; for “MSELNLSPDKLTVLLMGGSFGAGNIKETLDELLDTDRDFQILVITGKNESLKEKIEKKLMSRYHDKNVCVLGYTDKMNDILASIDVLVSKPGGLTTTEALLKDVPMIVPYYIPGQEEENLDFLSNCGAALRTTKKYNLSILLKVLIDDPSRLEMLKRNIKSIRKSNSAQNIANLILNIISGLEHHHHHH”: “failed”. The same measure for “MSEMAGDSSTSEDKIHKPNRERNVSGELDVFEATRYFSDFNEPTTIEYSRIQIQKQSIVTENRQKRVHPETEEHLPKPRVVVIKPQKKEMTRGGGKKLTSFLNSLLRSAGLKKKSKSAPEVETPRVERMRRKSCVVTTHAADASPLTNAGAWSLNARRRSFDEKDLKKSDQKLNIRFCESLYSDQRVETKDPNAGDKNDVIGGCESDSSSESDLFELDLFAKSNP”: “failed”.

The values are drawn from a protein production outcome set (Wang et al. 2014).
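Also: failed if final PepcDB status was selected cloned or expressed and not failed if soluble or beyond.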
